Laboratory results published in article PMC12578283 (Protein & Cell, 2025).
“And” between values parts separate entries of the source, which are not always exact repeats. Identical values can stand only once.

T1: p15 protein of African swine fever virus (African swine fever virus, UniProt Q65179 1-158)
T1 chain: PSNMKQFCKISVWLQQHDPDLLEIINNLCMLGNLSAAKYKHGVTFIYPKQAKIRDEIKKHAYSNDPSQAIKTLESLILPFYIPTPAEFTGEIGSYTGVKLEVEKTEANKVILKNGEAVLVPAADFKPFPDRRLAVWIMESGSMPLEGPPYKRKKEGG

B1: monoclonal antibody 4E2 (antibody, V domains shown)
VH: QVQLHQPGSVLVRPGASVKLSCKASGYTFTSSWMHWAKQRPGQGLEWIGEIHPKSGNTNYNENFKGKATLTVDTSSSTAYVDLSSLASEDSAVYYCARSGGTYYYAMDSWGQGTSVTVSS
VL: DIQMTQTTSSLSASLGDRVTISCRASQDTSNYLNWYQQKPDGTVKLLIYYTSRLHSGVPSRFSGSGSGTDFSLTINTLEQEDFATYFCQQGNTSPYTFGGGTKLEIK

Columns and labels:
[1] = molecular target: p15 protein of African swine fever virus (African swine fever virus) (UniProt Q65179); experiment: cryo-EM structure
[2] = molecular target: p15 protein of African swine fever virus (African swine fever virus, UniProt Q65179); experiment: SPR; settings: both partners purified
[3] = molecular target: T1, p15 protein of African swine fever virus; experiment: SPR

| Molecule | stoichiometry N [1] | Kd [2] [nM] | koff [3] [s⁻¹] |
| --- | --- | --- | --- |
| p15 protein of African swine fever virus (from UniProt Q65179 1-158) (natural protein) | 3 and 6 |  |  |
| B1 |  | 6.39 | 0.000503 |
